From publication doi:10.1101/2025.05.20.655035 come the findings set out here.

Like-named read-outs stand apart in the source and are kept apart here.

The target of data set [1] is T1, His6-TCP4 (TCP4-His6) (Arabidopsis thaliana, UniProt Q8LPR5 1-420).
T1 sequence: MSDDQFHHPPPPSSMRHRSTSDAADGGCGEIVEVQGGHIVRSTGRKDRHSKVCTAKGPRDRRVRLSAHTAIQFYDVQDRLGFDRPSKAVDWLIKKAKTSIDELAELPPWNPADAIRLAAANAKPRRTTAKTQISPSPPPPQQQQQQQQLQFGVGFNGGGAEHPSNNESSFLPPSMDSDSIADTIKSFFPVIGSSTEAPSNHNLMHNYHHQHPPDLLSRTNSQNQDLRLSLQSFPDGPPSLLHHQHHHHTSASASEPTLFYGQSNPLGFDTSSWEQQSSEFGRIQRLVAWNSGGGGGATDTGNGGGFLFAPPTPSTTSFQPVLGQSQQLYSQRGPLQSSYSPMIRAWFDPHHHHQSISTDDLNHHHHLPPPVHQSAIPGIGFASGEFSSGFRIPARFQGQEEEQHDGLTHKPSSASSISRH
The experiment in a line: EMSA. Background: A gel shift assay detects complexes by their altered migration in electrophoresis.

For data set [2], the target named is T1, His6-TCP4 (TCP4-His6). The data set is described as follows: EMSA. This is another data set of the same source.

B1: BS5 (dsDNA)
DNA 1: TTGCATATTGGTTGGTCCAAAAAGATCAAC
DNA 2: GTTGATCTTTTTGGACCAACCAATATGCAA
In the case of B1, the binding result in the data set with His6-TCP4 (TCP4-His6) [1] is recorded as “no binding”.

B2: BS2 (dsDNA)
DNA 1: GTGATGTTAAAATGGTCCTAAGTTGACATA
DNA 2: TATGTCAACTTAGGACCATTTTAACATCAC
On to B2, for which, in the data set with His6-TCP4 (TCP4-His6) [2], the binding result is reported as “binds”.

B3: BS3-4 (dsDNA)
DNA 1: CAACACACAAATGTGGTCCATTTCTTTTTGTTCATGTGGTCCAATTTTGGTATAT
DNA 2: ATATACCAAAATTGGACCACATGAACAAAAAGAAATGGACCACATTTGTGTGTTG
In the case of B3, the binding result in the data set with His6-TCP4 (TCP4-His6) [2] is reported as “binds”.

B4: BS1 (dsDNA)
DNA 1: TCAATTCAACTAGGCCCAGTTTCCTCCTTC
DNA 2: GAAGGAGGAAACTGGGCCTAGTTGAATTGA
For B4, the binding result with His6-TCP4 (TCP4-His6) [1] was “no binding”.
